We go through one molecule from patent US20240100152A1 (UNIVERSITY OF PITTSBURGH OF THE COMMONWEALTH SYSTEM OF …, published 2024).

This experiment has as its target T1, human α7 nicotinic acetylcholine receptor (α7nAChR) expressed on HEK293T/17 cells (human, UniProt P36544 23-502).
T1 construct: whole, on cells
The experiment can be described thus: live-cell fluorescent labeling of transfected HEK293 cells.

T1 sequence (P36544 23-502): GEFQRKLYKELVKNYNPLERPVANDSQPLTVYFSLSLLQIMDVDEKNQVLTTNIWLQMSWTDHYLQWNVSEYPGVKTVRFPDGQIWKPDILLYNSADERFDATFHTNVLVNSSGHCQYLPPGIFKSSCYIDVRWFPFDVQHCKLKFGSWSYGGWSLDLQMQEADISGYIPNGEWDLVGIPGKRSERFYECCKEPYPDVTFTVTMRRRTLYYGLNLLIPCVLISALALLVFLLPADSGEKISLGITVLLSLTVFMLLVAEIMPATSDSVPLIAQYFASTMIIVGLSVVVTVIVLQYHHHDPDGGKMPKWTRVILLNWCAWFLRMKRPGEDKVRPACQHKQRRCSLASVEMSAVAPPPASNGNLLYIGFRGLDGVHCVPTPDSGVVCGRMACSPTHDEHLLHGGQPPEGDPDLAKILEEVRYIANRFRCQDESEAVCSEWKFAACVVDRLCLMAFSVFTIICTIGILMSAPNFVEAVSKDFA

B1: α-bungarotoxin Alexa Fluor 594 conjugate (ligand)
chain: IVCHTTATSPISAVTCPPGENLCYRKMWCDAFCSSRGKVVELGCAATCPSKKPYEEVTCCSTDKCNPHPKQRPG
On to B1, for which the binding result was “binds”.
